Legend:
SAMP1/YitFc mice = assay: Spontaneous ileal fibrosis in SAMP1/YitFc mice; type: in vivo; conditions: SAMP1/YitFc model
Procedure: Eight-week-old male and female SAMP1/YitFc mice (#009355) and normal AKR strain control mice (#000648) were purchased from Jackson Laboratories. SAMP1/YitFc mice developed spontaneous ileal inflammation and fibrosis at 40 weeks of age.
Some groups were treated with antibiotics mixture in drinking water ad libitum from 10 to 42 weeks of age. Others received a single intraperitoneal injection (1×10^7 infectious units/mouse) of either control lentivirus or elafin-expressing lentivirus (RC203136L1V, Origene) at 40-weeks of age. Ileal tissues were collected for analysis two weeks after the lentiviral injection.
H&E and Masson Trichrome (MT) staining were performed as described previously. Microphotographs were recorded at multiple locations and scored by two investigators blindly. Intestinal injuries were scored (0-12). The severity of intestinal fibrosis was assessed by MT staining and scored (0-3). ZEB1 immunohistochemistry was performed using an anti-ZEB1 antibody (HPA027524, Sigma).
(§1) Total RNA was isolated by an RNeasy kit (#74104, Qiagen) and reverse transcribed into cDNA by a high-capacity cDNA reverse transcription kit (#4368813, ThermoFisher). […] Relative mRNA/miRNA quantification was performed by comparing test groups and control groups after normalization with endogenous control genes. The fold changes are expressed as 2^ΔΔCt. […]

[1] = system: mouse RAW264.7 macrophages; assay: TNFα secretion in RAW264.7 macrophages; type: cell-based; conditions: elafin 10-1000 ng/ml, 6 h
Procedure: Mouse RAW264.7 macrophages (#TIB-71, ATCC) were cultured in Dulbecco's modified Eagle's medium (DMEM) (#11965-084, ThermoFisher) with 10% fetal bovine serum (FBS) (#10437-028, Life Technologies) and 1% penicillin/streptomycin/glutamine (P/S/G) (#10378-016, Life Technologies) mixture. The macrophages were serum-starved overnight, followed by exposure to fatty acid-free bovine serum albumin (BSA) (A7030, Sigma), sodium palmitate (P9767, Sigma), or lipopolysaccharide (LPS) (L5418, Sigma) for 2 h, and then the addition of elafin (10-1000 ng/ml) for additional 6 h. The cell-conditioned media were used for mouse TNFα ELISA (DY410, R&D Systems).

[2] = system: primary human intestinal fibroblasts from CD patients; assay: Elafin exposure of primary human intestinal fibroblasts from CD patients (Example 1); type: cell-based; conditions: elafin 24 hours
Procedure: FIG. 6. Elafin promotes fibrogenesis in human colonic fibroblasts. (A) The human colonic CCD-18Co fibroblasts were incubated with 100 μl/ml (10%) of human sera from normal, stricturing CD, and non-stricturing CD patients in serum-free DMEM for 24 hours. (B) The human colonic CCD-18Co fibroblasts were incubated with 100 μl/ml (10%) of human sera from high elafin CD group (>8000 pg/ml) and low elafin CD group (<8000 pg/ml) in serum-free DMEM for 24 hours. (C) Serum-starved CCD-18Co fibroblasts were pretreated with 15 μg/ml of anti-elafin neutralizing antibody or control antibody for 30 minutes, followed by exposure to (100 μl/ml) human sera from normal and stricturing CD patients for 24 hours. Six serum donors per group. […] Pro-COL1A1 protein levels in cell lysates were determined by ELISA. (E) Serum-starved primary human intestinal fibroblasts from CD patients were exposed to elafin for 24 hours. mRNA expression was determined by real-time RT-PCR. […]
Total RNA was isolated by an RNeasy kit (#74104, Qiagen) and reverse transcribed into cDNA by a high-capacity cDNA RT kit (#4368813, ThermoFisher). Quantitative PCR reactions were run with Fast Universal PCR master mix (#4352042, ThermoFisher) in a Bio-Rad CFX384 system. […] Relative mRNA quantification was performed by comparing test groups and normal control group, after normalization with endogenous control gene human 18S (Hs99999901_s1).

Salmonella-infected mice = assay: Salmonella-mediated cecal fibrosis in mice; type: in vivo; conditions: Salmonella model
Procedure: Eight-week-old male and female 129Sv/J mice (#000691, Jackson Laboratories) were administered 20 mg streptomycin via oral gavage. Twenty-four hours later, the mice were orally infected with Salmonella typhimurium SL1344 strain 1×10^8 colony-forming units by oral gavage to induce cecal fibrosis.
Origene or miR205-5p-OFF lentivrus (mm35328) or miR205-5p-OE lentivirus (mm15214) from Applied Biological Materials on day 14. Some infected mice received oral antibiotics mixture in drinking water ad libitum from day 14 to day 21 to suppress intestinal microbiota. […]
H&E and Masson Trichrome (MT) staining were performed as described previously. Microphotographs were recorded at multiple locations and scored by two investigators blindly. Intestinal injuries were scored (0-12). The severity of intestinal fibrosis was assessed by MT staining and scored (0-3). […]
as §1
Overall disease activity (ODA) was calculated by % change of histology and fibrosis scores and colonic mRNA expression of fibrosis- and inflammation-related genes. […]

**Q.** What does the source list for “Elafin: small (6 kDa) human elastase-specific protease inhibitor and antimicrobial peptide; active form SEQ ID NO: 2 (AQEPVKGPVSTKPGSCPIILIRCAMLNPPNRCLKDTDCPGIKKCCEGSCGMACFVPQ; listed as Homo sapiens)”?
**A.** overall disease activity (SAMP1/YitFc mice): 7%; LPS- and palmitate-induced TNFα secretion [1]: did not affect; collagen (COL3A1 and COL1A2), ACTA2 and TGF-b1 mRNA expression [2]: increased; overall disease activity (Salmonella-infected mice): 29%
